Results: patent publication US20260139023A1 (Dana-Farber, published 2026)

Columns and labels:
[1] = target: T1, recombinant human integrin αVβ5 ectodomain (human, UniProt P06756 32-991; P18084 24-717, glycosylated with heterogeneous glycans); test: fluorescence anisotropy competition, 50 nM A488-irisin-WT (bacterial) and 1000 nM αVβ5, varied unlabeled irisin-WT (FIG. 7F); competition, wild type bacterial dimer, run beside R75E (FIG. 7F)
T1 construct: range 32-991;range 24-717; Used in the solution assays (anisotropy, MST, HDX-MS, FRET); An introduced Cys and the rest of the HRV3C site would remain after cleavage; also called αVβ5 alone; αVβ5/Mn2+

[2] = target: T1, recombinant human integrin αVβ5 …; test: fluorescence anisotropy, A488-irisin-bac, varied αVβ5, 1 mM MnCl2 (FIG. 7D); direct binding, A488-irisin-bac (FIG. 7D)
[3] = target: T1, recombinant human integrin αVβ5 …; test: fluorescence anisotropy, A488-irisin-bac, αVβ5 varied 0-6000 nM, 1 mM MnCl2
[4] = target: T1, recombinant human integrin αVβ5 …; test: fluorescence anisotropy, compared with irisin-mam on αVβ5
[5] = target: T1, recombinant human integrin αVβ5 …; test: fluorescence anisotropy competition: 50 nM A488-irisin-bac probe and 1000 nM αVβ5, unlabeled irisin-bac varied 0-4000 nM
[6] = target: T1, recombinant human integrin αVβ5 …; test: fluorescence anisotropy competition: 50 nM A488-irisin-WT probe and 1000 nM αVβ5, unlabeled irisin-WT varied 0-4000 nM
[7] = target: T1, recombinant human integrin αVβ5 …; test: fluorescence anisotropy competition, 50 nM A488-irisin-bac and 1000 nM αVβ5, varied unlabeled irisin-bac (FIG. 7E); competition, unlabeled irisin-bac vs A488-irisin-bac (FIG. 7E)
[8] = target: T1, recombinant human integrin αVβ5 …; test: fluorescence anisotropy competition, 50 nM A488-irisin-WT (bacterial) and 1000 nM αVβ5, varied unlabeled irisin-R75E (FIG. 7F); competition, R75E monomer mutant (FIG. 7F)
[9] = target: T1, recombinant human integrin αVβ5 …; test: fluorescence anisotropy competition: 50 nM A488-irisin-WT probe and 1000 nM αVβ5, unlabeled irisin-R75E varied 0-4000 nM
[10] = target: T2, recombinant human Hsp90α (purified from E. coli, untagged) (human, UniProt P07900 2-732); test: fluorescence anisotropy binding assay with labelled irisin, Hsp90α without nucleotide or charged with ATP, AMP-PNP or ADP varied 0-2500 nM
T2 construct: mature; Tested as Apo and as ATP-, AMP-PNP- and ADP-charged forms; also called eHsp90α; Hsp90α-Apo

[11] = target: T1, recombinant human integrin αVβ5 …; test: fluorescence anisotropy, direct binding: labelled irisin WT with varied aVß5 concentration (0 to 1000 nM); black curve and black label
[12] = target: T1, recombinant human integrin αVβ5 …; test: fluorescence anisotropy competition: 50 nM A488-irisin-bac probe and 1000 nM αVβ5, unlabeled irisin-mam (irisin-His) varied 0-4000 nM
[13] = target: T3, αVβ5/Hsp90α complex (reconstituted from recombinant human αVβ5 ectodomain and recombinant human Hsp90α) (human, UniProt P06756 32-991; P18084 24-717; P07900 2-732, glycosylated); test: fluorescence anisotropy competition, 50 nM A488-irisin-His and 125 nM αVβ5/Hsp90α, varied unlabeled irisin-His (FIG. 1H)
T3 construct: range 32-991;range 24-717;mature; also called integrin/Hsp90α complex
Description: (§1) The domain boundaries are as follows: αV, 32-991; β5, 24-717.

[14] = target: T1, recombinant human integrin αVβ5 …; test: fluorescence anisotropy, 50 nM A488-irisin-His, αVβ5 in 1 mM MnCl2 (FIG. 4D)
[15] = target: T3, αVβ5/Hsp90α complex (reconstituted from …); test: fluorescence anisotropy, 50 nM A488-irisin-His, αVβ5/Hsp90α complex in 1 mM MgCl2 and 1 mM CaCl2 (FIG. 4D)
[16] = target: T3, αVβ5/Hsp90α complex (reconstituted from …); test: fluorescence anisotropy competition: 50 nM A488-irisin-His probe and 125 nM αVβ5 (as αVβ5/Hsp90α complex), unlabeled irisin-His varied 0-6000 nM
Description: as §1

[17] = target: T1, recombinant human integrin αVβ5 …; test: fluorescence anisotropy competition, 50 nM A488-irisin-bac and 1000 nM αVβ5, varied unlabeled irisin-mam (irisin-His) (FIG. 7E); competition, unlabeled irisin-mam vs A488-irisin-bac (FIG. 7E)
[18] = target: T1, recombinant human integrin αVβ5 …; test: fluorescence anisotropy binding assay with labelled irisin, αVβ5 varied 0-1000 nM as the positive curve beside the Hsp90α curves; buffer and activation state of αVβ5 not given in the legend
[19] = target: T4, clasped and tagged αVβ5 (recombinant human αVβ5 ectodomain with C-terminal coiled-coil clasp and affinity … (human, UniProt P06756 32-991; P18084 24-717, glycosylated); test: BLI (Octet RED384), clasped and tagged αVβ5 on streptavidin sensors, 1 mM MgCl2 and 1 mM CaCl2; affinity-purified αVβ5 preparation that still held co-purified Hsp90α (FIG. 1B)
T4 construct: range 32-991;range 24-717; Used in BLI (streptavidin sensors) and TALON pull-downs; also called clasped αVβ5; immobilized clasped αVβ5; not shown: introduced Cys, HRV3C site, acidic α-helical coiled-coil and twin Strep-II tag; introduced Cys, HRV3C site, basic α-helical coiled-coil and 8xHis tag
Description: as §1
Biolayer Inferometry (BLI) measurements were conducted by Octet RED384. […] Data analysis HT software was used for the fitting and Kd calculations.

[20] = target: T3, αVβ5/Hsp90α complex (reconstituted from …); test: summary sentence of Example 2: αVβ5 receptor activated by eHsp90α; αVβ5 activated by eHsp90α; rounded summary value
[21] = target: T3, αVβ5/Hsp90α complex (reconstituted from …); test: fluorescence anisotropy, 50 nM A488-irisin-His, varied αVβ5/Hsp90α complex, 1 mM MgCl2 and 1 mM CaCl2 (FIG. 1G)
Description: as §1

[22] = target: T3, αVβ5/Hsp90α complex (reconstituted from …); test: fluorescence anisotropy competition: 50 nM A488-irisin-His probe and 125 nM αVβ5 (as αVβ5/Hsp90α complex), unlabeled untagged irisin varied 0-6000 nM
Description: as §1

[23] = target: T3, αVβ5/Hsp90α complex (reconstituted from …); test: fluorescence anisotropy competition: unlabeled WT irisin (0 to 6000 nM) against the labelled WT irisin probe on the αVβ5/Hsp90 complex; black curve
[24] = target: T3, αVβ5/Hsp90α complex (reconstituted from …); test: fluorescence anisotropy competition, 50 nM A488-irisin-His and 125 nM αVβ5/Hsp90α, varied unlabeled untagged irisin (FIG. 1H)
Description: as §1

[25] = target: T1, recombinant human integrin αVβ5 …; test: fluorescence anisotropy, direct binding: labelled irisin N45Q with varied aVß5 concentration (0 to 1000 nM); grey curve and grey label
[26] = target: T3, αVβ5/Hsp90α complex (reconstituted from …); test: fluorescence anisotropy competition: unlabeled N45Q (0 to 6000 nM) against the labelled WT irisin probe on the αVβ5/Hsp90 complex; grey curve

B1: irisin-bac (non-glycosylated irisin dimer produced in bacteria) (ligand, UniProt Q8K4Z2 61-171, looked up)
chain: SPSAPVNVTVRHLKANSAVVSWDVLEDEVVIGFAISQQKKDVRMLRFIQEVNTTTRSCALWDLEEDTEYIVHVQAISIQGQSPASEPVLFKTPREAEKMASKNKDEVTMKE
modifications: Alexa Fluor 488 label where used as probe
notes: also called A488-irisin-bac
Kd [1]: 299 nM
Kd [2]: 256 nM
Kd [3]: 317 nM
fold weaker affinity than irisin-mam [4]: ~8 fold
IC50 [5]: 1190 nM
IC50 [6]: 1270 nM
Kd [7]: 294 nM

B2: irisin-R75E (non-glycosylated irisin monomer mutant R75E from bacteria) (ligand, UniProt Q8K4Z2-1 30-140, looked up)
chain: SPSAPVNVTVRHLKANSAVVSWDVLEDEVVIGFAISQQKKDVRMLEFIQEVNTTTRSCALWDLEEDTEYIVHVQAISIQGQSPASEPVLFKTPREAEKMASKNKDEVTMKE
notes: also called monomeric mutant
Kd [8]: 42 nM
IC50 [9]: 198 nM

B3: irisin-His (wild-type, glycosylated recombinant irisin, His tagged, from mammalian cells) (ligand)
chain: DSPSAPVNVTVRHLKANSAVVSWDVLEDEVVIGFAISQQKKDVRMLRFIQEVNTTTRSCALWDLEEDTEYIVHVQAISIQGQSPASEPVLFKTPREAEKMASKNKDEVTMKEHHHHHHHHHHRDPLEVLFQ
modifications: N-glycosylated at N36, N45 and N81 (numbers as printed); Alexa Fluor 488, 555 or 647 label where the assay says so
notes: Monomer by SEC-MALS; also called irisin-mam; A488-irisin-His
binding result [10]: no binding (tested: 2500 nM)
Kd [11]: 6 nM
IC50 [12]: 165 nM
Kd [13]: 52 nM
Kd [14]: 28 nM
Kd [15]: 37 nM
IC50 [16]: 499 nM
Kd [17]: 35 nM
Kd [18]: 43 nM
Kd [19]: 212 nM
Kd [20]: ~30 nM
Kd [21]: 31 nM

B4: untagged irisin (wild-type, glycosylated recombinant irisin from mammalian cells) (ligand)
chain: DSPSAPVNVTVRHLKANSAVVSWDVLEDEVVIGFAISQQKKDVRMLRFIQEVNTTTRSCALWDLEEDTEYIVHVQAISIQGQSPASEPVLFKTPREAEKMASKNKDEVTMKE
modifications: N-glycosylated at N36, N45 and N81 (numbers as printed)
notes: also called unlabeled and untagged irisin; WT irisin
IC50 [22]: 477 nM
IC50 [23]: 440 nM
Ki [23]: 56 nM
Kd [24]: 50 nM

B5: irisin N45Q mutant (irisin glycosylation mutant, recombinant, from mammalian Expi293 cells) (ligand)
chain: DSPSAPVNVTVRHLKAQSAVVSWDVLEDEVVIGFAISQQKKDVRMLRFIQEVNTTTRSCALWDLEEDTEYIVHVQAISIQGQSPASEPVLFKTPREAEKMASKNKDEVTMKE
modifications: glycosylated at positions 36 and 81; position 45 is Q, not N-glycosylated
Kd [25]: 32 nM
IC50 [26]: 35 nM
Ki [26]: 9 nM
